{"source": "paper doi:10.1101/495473v2", "proteins": {"B1": {"name": "PbPGP (Plasmodium berghei ANKA) (protein)", "chain": "MSLIVSEASQNNYFKDSENSYNSFMKEWKIEKRVNVKDLYQNFEVFFFDCDGVLWRGDTVINGAIEVINKLISDNKKVYFITNNSTKSRDTLLGKFHKLGFTCVKKEHIICTSYAIAKYFHSKEEYKSRKKKIYVIGEKGICDELDALNLVWLGSYKDNDKKVIIQDEGEIQIDNNIGAVVVAIDFNINYYKIQYAQLCINGLDAEFIVSNKDPLANFTSNQQWAGTGSIVASIEQVSFKKPKVLGKPNLFMIESVLKSLNIDLSKVVMIGDRLDTDIFFAQNCKIKSILVSTGVTDANVFLNHNNLNIKPDYFMKSILEFL"}}, "assay_in_all_cases": "purified protein", "settings_in_all_cases": "5 mM MgCl2, 200 mM Tricine-NaOH pH 7.4, 37 °C", "key": {"[1]": {"substrate": "O=P(O)(O)OC(CO)CO"}, "[2]": {"substrate": "C[C@H](OP(=O)(O)O)C(=O)O"}, "[3]": {"substrate": "O=C(O)COP(=O)(O)O"}}, "data": [{"protein": "B1", "values": [{"measurement": "Km", "setting": "[1]", "result": "2110 ± 11", "unit": "µM"}, {"measurement": "kcat", "setting": "[1]", "result": "10.18 ± 0.08", "unit": "s⁻¹"}, {"measurement": "Km", "setting": "[2]", "result": "4773 ± 574", "unit": "µM"}, {"measurement": "kcat", "setting": "[2]", "result": "67.34 ± 8.31", "unit": "s⁻¹"}, {"measurement": "Km", "setting": "[3]", "result": "2526 ± 494", "unit": "µM"}, {"measurement": "kcat", "setting": "[3]", "result": "75.15 ± 7.86", "unit": "s⁻¹"}]}]}
